{"source": "patent US20190309072A1", "about": "(published 2019)"}
{"molecular_target": "T1, human ITGa3 protein (human, UniProt P26006 33-991)", "T1 chain": "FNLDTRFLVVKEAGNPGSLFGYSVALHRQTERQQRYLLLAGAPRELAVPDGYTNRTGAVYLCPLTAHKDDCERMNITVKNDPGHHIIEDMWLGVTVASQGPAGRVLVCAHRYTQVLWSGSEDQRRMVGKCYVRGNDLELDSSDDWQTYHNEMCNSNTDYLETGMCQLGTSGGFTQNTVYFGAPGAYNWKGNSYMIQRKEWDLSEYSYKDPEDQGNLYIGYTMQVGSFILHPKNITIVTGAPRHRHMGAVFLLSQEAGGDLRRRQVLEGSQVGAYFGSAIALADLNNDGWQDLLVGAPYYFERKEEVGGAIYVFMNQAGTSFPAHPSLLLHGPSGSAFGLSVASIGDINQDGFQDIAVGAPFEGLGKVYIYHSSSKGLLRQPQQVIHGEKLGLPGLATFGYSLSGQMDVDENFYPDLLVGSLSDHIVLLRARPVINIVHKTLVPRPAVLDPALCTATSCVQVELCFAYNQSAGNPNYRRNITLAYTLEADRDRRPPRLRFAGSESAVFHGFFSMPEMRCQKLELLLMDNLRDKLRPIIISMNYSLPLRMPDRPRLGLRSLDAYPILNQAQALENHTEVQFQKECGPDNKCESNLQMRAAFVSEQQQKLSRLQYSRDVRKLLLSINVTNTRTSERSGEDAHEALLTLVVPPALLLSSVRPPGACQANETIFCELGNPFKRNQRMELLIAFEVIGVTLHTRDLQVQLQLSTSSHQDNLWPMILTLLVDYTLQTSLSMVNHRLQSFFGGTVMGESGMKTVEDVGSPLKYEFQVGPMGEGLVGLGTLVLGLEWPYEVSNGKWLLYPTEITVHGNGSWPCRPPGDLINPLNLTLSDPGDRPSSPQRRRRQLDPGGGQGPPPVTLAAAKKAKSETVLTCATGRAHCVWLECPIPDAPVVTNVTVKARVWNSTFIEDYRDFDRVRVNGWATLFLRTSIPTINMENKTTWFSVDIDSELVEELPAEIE", "experiment": "ELISA; apparent Kd", "units": {"Kd": "pM"}}
{"binder": "ITGa3-VM2 (antibody, V domains shown) VH: EVQLQESGAELVKPGTSVRLSCKASGYTFTEYIIHWVKQRSGQGLEWIGWFYPESGSVKYNETFKGRATLTADKSSSTVYMELSRLTSEDSAVYFCARHEERDYYGYYAMDYWGQGTSVTVSS VL: DIVMTQTPTTLAASPGEKIIITCSASSSISSNYLHWYQQKPGFSPKLLIYRTSNLASGVPARFSGSGSGTSYSLTIGTMEAEDVATYYCQQGSSIPRFTSGSGTKLEIK", "Kd": 230}
{"binder": "Lc1/Hc1S (VH of SEQ ID NO: 4 and VL of SEQ ID NO: 12) (antibody, V domains shown) VH: QVQLVQSGAEVKKPGSSVKVSCKASGYTFTEYIIHWVRQAPGQGLEWIGWFYPESGSVKYSETFKGRATLTADKSTSTAYMELSSLRSEDTAVYYCARHEERDYYGYYAMDYWGQGTTVTVSS VL: DIQMTQSPSSLSASVGDRVIITCSASSSISSNYLHWYQQKPGKVPKLLIYRTSNLASGVPSRFSGSGSGTDYTLTISSLQPEDVATYYCQQGSSIPRFTSGGGTKVEIK", "Kd": 180}
{"binder": "Lc1/Hc2S (antibody, V domains shown) VH: QVQLVQSGAEVKKPGSSVKVSCKASGYTFTEYIIHWVRQAPGQGLEWIGWFYPESGSVKYSETFKGRATITADKSTSTAYMELSSLRSEDTAVYYCARHEERDYYGYYAMDYWGQGTTVTVSS VL: DIQMTQSPSSLSASVGDRVTITCSASSSISSNYLHWYQQKPGKVPKLLIYRTSNLASGVPSRFSGSGSGTDYTLTISSLQPEDVATYYCQQGSSIPRFTSGGGTKVEIK", "Kd": 320}
{"binder": "Lc1/Hc2A (antibody, V domains shown) VH: QVQLVQSGAEVKKPGSSVKVSCKASGYTFTEYIIHWVRQAPGQGLEWIGWFYPESGSVKYNEAFKGRATITADKSTSTAYMELSSLRSEDTAVYYCARHEERDYYGYYAMDYWGQGTTVTVSS VL: DIQMTQSPSSLSASVGDRVTITCSASSSISSNYLHWYQQKPGKVPKLLIYRTSNLASGVPSRFSGSGSGTDYTLTISSLQPEDVATYYCQQGSSIPRFTSGGGTKVEIK", "Kd": 270}
{"binder": "Lc1/Hc1 (antibody, V domains shown) VH: QVQLVQSGAEVKKPGSSVKVSCKASGYTFTEYIIHWVRQAPGQGLEWIGWFYPESGSVKYNETFKGRATLTADKSTSTAYMELSSLRSEDTAVYYCARHEERDYYGYYAMDYWGQGTTVTVSS VL: DIQMTQSPSSLSASVGDRVTITCSASSSISSNYLHWYQQKPGKVPKLLIYRTSNLASGVPSRFSGSGSGTDYTLTISSLQPEDVATYYCQQGSSIPRFTSGGGTKVEIK", "Kd": 180}
{"binder": "Lc2/Hc2G (antibody, V domains shown) VH: QVQLVQSGAEVKKPGSSVKVSCKASGYTFTEYIIHWVRQAPGQGLEWIGWFYPESGSVKYNEGFKGRATITADKSTSTAYMELSSLRSEDTAVYYCARHEERDYYGYYAMDYWGQGTTVTVSS VL: DIQMTQSPSSLSASVGDRVIITCSASSSISSNYLHWYQQKPGKVPKLLIYRTSNLASGVPSRFSGSGSGTDYTLTISSLQPEDVATYYCQQGSSIPRFTSGGGTKVEIK", "Kd": 180}
{"binder": "Lc1/Hc1A (antibody, V domains shown) VH: QVQLVQSGAEVKKPGSSVKVSCKASGYTFTEYIIHWVRQAPGQGLEWIGWFYPESGSVKYNEAFKGRATLTADKSTSTAYMELSSLRSEDTAVYYCARHEERDYYGYYAMDYWGQGTTVTVSS VL: DIQMTQSPSSLSASVGDRVTITCSASSSISSNYLHWYQQKPGKVPKLLIYRTSNLASGVPSRFSGSGSGTDYTLTISSLQPEDVATYYCQQGSSIPRFTSGGGTKVEIK", "Kd": 320}
{"binder": "Lc2/Hc1A (antibody, V domains shown) VH: QVQLVQSGAEVKKPGSSVKVSCKASGYTFTEYIIHWVRQAPGQGLEWIGWFYPESGSVKYNEAFKGRATLTADKSTSTAYMELSSLRSEDTAVYYCARHEERDYYGYYAMDYWGQGTTVTVSS VL: DIQMTQSPSSLSASVGDRVIITCSASSSISSNYLHWYQQKPGKVPKLLIYRTSNLASGVPSRFSGSGSGTDYTLTISSLQPEDVATYYCQQGSSIPRFTSGGGTKVEIK", "Kd": 230}
{"binder": "Lc2/Hc1 (antibody, V domains shown) VH: QVQLVQSGAEVKKPGSSVKVSCKASGYTFTEYIIHWVRQAPGQGLEWIGWFYPESGSVKYNETFKGRATLTADKSTSTAYMELSSLRSEDTAVYYCARHEERDYYGYYAMDYWGQGTTVTVSS VL: DIQMTQSPSSLSASVGDRVIITCSASSSISSNYLHWYQQKPGKVPKLLIYRTSNLASGVPSRFSGSGSGTDYTLTISSLQPEDVATYYCQQGSSIPRFTSGGGTKVEIK", "Kd": 180}
{"binder": "Lc1/Hc1G (antibody, V domains shown) VH: QVQLVQSGAEVKKPGSSVKVSCKASGYTFTEYIIHWVRQAPGQGLEWIGWFYPESGSVKYNEGFKGRATLTADKSTSTAYMELSSLRSEDTAVYYCARHEERDYYGYYAMDYWGQGTTVTVSS VL: DIQMTQSPSSLSASVGDRVTITCSASSSISSNYLHWYQQKPGKVPKLLIYRTSNLASGVPSRFSGSGSGTDYTLTISSLQPEDVATYYCQQGSSIPRFTSGGGTKVEIK", "Kd": 230}
{"binder": "Lc2/Hc2S (antibody, V domains shown) VH: QVQLVQSGAEVKKPGSSVKVSCKASGYTFTEYIIHWVRQAPGQGLEWIGWFYPESGSVKYSETFKGRATITADKSTSTAYMELSSLRSEDTAVYYCARHEERDYYGYYAMDYWGQGTTVTVSS VL: DIQMTQSPSSLSASVGDRVIITCSASSSISSNYLHWYQQKPGKVPKLLIYRTSNLASGVPSRFSGSGSGTDYTLTISSLQPEDVATYYCQQGSSIPRFTSGGGTKVEIK", "Kd": 240}
{"binder": "Lc2/Hc2 (antibody, V domains shown) VH: QVQLVQSGAEVKKPGSSVKVSCKASGYTFTEYIIHWVRQAPGQGLEWIGWFYPESGSVKYNETFKGRATITADKSTSTAYMELSSLRSEDTAVYYCARHEERDYYGYYAMDYWGQGTTVTVSS VL: DIQMTQSPSSLSASVGDRVIITCSASSSISSNYLHWYQQKPGKVPKLLIYRTSNLASGVPSRFSGSGSGTDYTLTISSLQPEDVATYYCQQGSSIPRFTSGGGTKVEIK", "Kd": 100}
{"binder": "Lc1/Hc2 (antibody, V domains shown) VH: QVQLVQSGAEVKKPGSSVKVSCKASGYTFTEYIIHWVRQAPGQGLEWIGWFYPESGSVKYNETFKGRATITADKSTSTAYMELSSLRSEDTAVYYCARHEERDYYGYYAMDYWGQGTTVTVSS VL: DIQMTQSPSSLSASVGDRVTITCSASSSISSNYLHWYQQKPGKVPKLLIYRTSNLASGVPSRFSGSGSGTDYTLTISSLQPEDVATYYCQQGSSIPRFTSGGGTKVEIK", "Kd": 70}
{"binder": "Lc2/Hc2A (antibody, V domains shown) VH: QVQLVQSGAEVKKPGSSVKVSCKASGYTFTEYIIHWVRQAPGQGLEWIGWFYPESGSVKYNEAFKGRATITADKSTSTAYMELSSLRSEDTAVYYCARHEERDYYGYYAMDYWGQGTTVTVSS VL: DIQMTQSPSSLSASVGDRVIITCSASSSISSNYLHWYQQKPGKVPKLLIYRTSNLASGVPSRFSGSGSGTDYTLTISSLQPEDVATYYCQQGSSIPRFTSGGGTKVEIK", "Kd": 240}
{"binder": "Lc1/Hc1S (antibody, V domains shown) VH: QVQLVQSGAEVKKPGSSVKVSCKASGYTFTEYIIHWVRQAPGQGLEWIGWFYPESGSVKYSETFKGRATLTADKSTSTAYMELSSLRSEDTAVYYCARHEERDYYGYYAMDYWGQGTTVTVSS VL: DIQMTQSPSSLSASVGDRVTITCSASSSISSNYLHWYQQKPGKVPKLLIYRTSNLASGVPSRFSGSGSGTDYTLTISSLQPEDVATYYCQQGSSIPRFTSGGGTKVEIK", "Kd": 180}
